Test results as given in the supplement of paper PMC9170038.

System: K4 kissing-loop RNA reporter
Experiment: apparent KD of K4 kissing-loop reporter; higher = weaker reporter binding
Details: Eterna round: R107
Method: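 RNA-MaP round R107: designed RNA switches with theophylline, tryptophan, arginine or FMN aptamers are transcribed on-chip within common flanks. They are titrated with a labelled K4 kissing-loop RNA reporter in RNA-MaP buffer (100 mM Tris pH 7.5, 80 mM KCl, 4 mM MgCl2), without ligand or with the indicated ligand. Median apparent KD per design.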

[1] = input ligand: theophylline 20 uM
[2] = input ligand: tryptophan 2.4 mM
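Further: bound reporter read as fluorescence of individual clusters on recovered sequencing chips by microscopy, with normalized cluster intensities fitted with a binding model.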

Sequence: CCUAUCUCAUACGAUACCAGUCAAUAUAAACGAGUGAUGUUCGAAAUAAUAUGCCAUCACGACCCUUGGCAGCGUAUGGGAUAGG [Ex Theophylline B K4 6]
- apparent KD of K4 kissing-loop reporter (input ligand: FMN 200 uM): 158 nM
- apparent KD of K4 kissing-loop reporter (input ligand: arginine 13.2 mM): 88.8 nM
- apparent KD of K4 kissing-loop reporter (input ligand: none): 141 nM
- apparent KD of K4 kissing-loop reporter [1]: 214 nM
- apparent KD of K4 kissing-loop reporter [2]: 126 nM

Sequence: CCUAUCUCAUACGAUACCAGUCAAUGAGAUUUUAUCAAUGCCAUCACCGAGUGAUGUUCGGACCCUUGGCAGCGUAUGGGAUAGG [#02 K4 Theophylline B Exclusion]
- apparent KD of K4 kissing-loop reporter (input ligand: FMN 200 uM): 236 nM
- apparent KD of K4 kissing-loop reporter (input ligand: arginine 13.2 mM): 185 nM
- apparent KD of K4 kissing-loop reporter (input ligand: none): 217 nM
- apparent KD of K4 kissing-loop reporter [1]: 298 nM
- apparent KD of K4 kissing-loop reporter [2]: 221 nM

Sequence: CCUAUCUCAUACGAUACCAGUGAUUAACCAGUGAUGUUGGAAUAACCAAGGAAUAUUUAUCACCCUUGGCAGCGUAUGGGAUAGG [Ex Theophylline B K4 28]
- apparent KD of K4 kissing-loop reporter (input ligand: FMN 200 uM): 99.8 nM
- apparent KD of K4 kissing-loop reporter (input ligand: arginine 13.2 mM): 54.4 nM
- apparent KD of K4 kissing-loop reporter (input ligand: none): 83.3 nM
- apparent KD of K4 kissing-loop reporter [1]: 115 nM
- apparent KD of K4 kissing-loop reporter [2]: 69.4 nM

Sequence: CCUUGGGCACGCCCACUAGGAAGCUAGUCUAAGGAUAUCGACUGGACGAGAAGGUAGACGGACCCGAGUGAUGUUCGGACAUAGG [theeternabot_sameState_KL_FMN_A_1]
- apparent KD of K4 kissing-loop reporter (input ligand: FMN 200 uM): 469 nM
- apparent KD of K4 kissing-loop reporter (input ligand: arginine 13.2 mM): 260 nM
- apparent KD of K4 kissing-loop reporter (input ligand: none): 215 nM
- apparent KD of K4 kissing-loop reporter [1]: 179 nM
- apparent KD of K4 kissing-loop reporter [2]: 200 nM

Sequence: CGACUAUUUCGAUAGUCGAUAGACACGGAAGGAGCGGGAUUCGUCCCAGGUAGGUCGCCGUGAAGUUGAGUGAUGUUCAACGUGU [Arg A SS t13]
- apparent KD of K4 kissing-loop reporter (input ligand: FMN 200 uM): 160 nM
- apparent KD of K4 kissing-loop reporter (input ligand: arginine 13.2 mM): 155 nM
- apparent KD of K4 kissing-loop reporter (input ligand: none): 155 nM
- apparent KD of K4 kissing-loop reporter [1]: 170 nM
- apparent KD of K4 kissing-loop reporter [2]: 147 nM

Sequence: CGAGAAUGUCGACAGUCAUCGGUCCAUGCACGAGGACCGGUACGGCCGCCACUCGAGCGUGGCAGUGAUGUUGCCAGCGCACUAA [KL-XTryp-A14]
- apparent KD of K4 kissing-loop reporter (input ligand: FMN 200 uM): 99.6 nM
- apparent KD of K4 kissing-loop reporter (input ligand: arginine 13.2 mM): 85.1 nM
- apparent KD of K4 kissing-loop reporter (input ligand: none): 86.3 nM
- apparent KD of K4 kissing-loop reporter [1]: 86 nM
- apparent KD of K4 kissing-loop reporter [2]: 100 nM

Sequence: CGAGAGCUCUUGUUUGGAUGUGUUUUAUGGCGAGGACCGGUACGGCCGCCACUCGGGUGAUGUUAGUGAUGUUGAUGUAGUGAUG [qzxmullin]
- apparent KD of K4 kissing-loop reporter (input ligand: FMN 200 uM): 118 nM
- apparent KD of K4 kissing-loop reporter (input ligand: arginine 13.2 mM): 79.6 nM
- apparent KD of K4 kissing-loop reporter (input ligand: none): 92.7 nM
- apparent KD of K4 kissing-loop reporter [1]: 154 nM
- apparent KD of K4 kissing-loop reporter [2]: 91.4 nM

Sequence: CGAGUGAUGUUCGUUCGUAUAUUUGGGUGACAGGAUAUGCGGAAACGCAGAAGGGUCGCCUUCGGGUUACCCGAAUUGGCGUUUU [FMN A Model 2]
- apparent KD of K4 kissing-loop reporter (input ligand: FMN 200 uM): 444 nM
- apparent KD of K4 kissing-loop reporter (input ligand: arginine 13.2 mM): 402 nM
- apparent KD of K4 kissing-loop reporter (input ligand: none): 546 nM
- apparent KD of K4 kissing-loop reporter [1]: 461 nM
- apparent KD of K4 kissing-loop reporter [2]: 455 nM

Sequence: CGAGUGAUGUUCGUUUUUUACUCUGUUUGACAGGAUAUGCGGAAACGCAGAAGGGUCACCUUUGAGUUAGACGGAGUUAUUUUUU [Ex FMN A 21]
- apparent KD of K4 kissing-loop reporter (input ligand: FMN 200 uM): 409 nM
- apparent KD of K4 kissing-loop reporter (input ligand: arginine 13.2 mM): 287 nM
- apparent KD of K4 kissing-loop reporter (input ligand: none): 322 nM
- apparent KD of K4 kissing-loop reporter [1]: 309 nM
- apparent KD of K4 kissing-loop reporter [2]: 290 nM

Sequence: CGAUUCAUGGCGGCCGCCACUCGCGAAGCUCCCGUUACGAUGUCCGCAACAGUGAUGUUGUUGCCGAGGACCGGGCCGAGAUCCA [theeternabot_exclusion_KL_Trp_B_31]
- apparent KD of K4 kissing-loop reporter (input ligand: FMN 200 uM): 283 nM
- apparent KD of K4 kissing-loop reporter (input ligand: arginine 13.2 mM): 173 nM
- apparent KD of K4 kissing-loop reporter (input ligand: none): 228 nM
- apparent KD of K4 kissing-loop reporter [1]: 211 nM
- apparent KD of K4 kissing-loop reporter [2]: 218 nM

Sequence: CGCAAGCAGCCAGUGAUGUUGGCCGCCUUGCGAGGACCGGUACGGCCGCCACUCGAAGGCGGCUACUGGUAAACCGUCUAACGGA [Oronorenma]
- apparent KD of K4 kissing-loop reporter (input ligand: FMN 200 uM): 94.9 nM
- apparent KD of K4 kissing-loop reporter (input ligand: arginine 13.2 mM): 71.7 nM
- apparent KD of K4 kissing-loop reporter (input ligand: none): 66.4 nM
- apparent KD of K4 kissing-loop reporter [1]: 62.8 nM
- apparent KD of K4 kissing-loop reporter [2]: 90.1 nM

Sequence: CGCAGUGAUGUUGCUAUUAUUCUUGAUUAACGAGGACCGGUACGGCCGCCACUCGAUUUCUAUCUAAUUUAGUGUUAUGUUGAUU [JR_ExcTryptoA_Sub007]
- apparent KD of K4 kissing-loop reporter (input ligand: FMN 200 uM): 351 nM
- apparent KD of K4 kissing-loop reporter (input ligand: arginine 13.2 mM): 423 nM
- apparent KD of K4 kissing-loop reporter (input ligand: none): 397 nM
- apparent KD of K4 kissing-loop reporter [1]: 447 nM
- apparent KD of K4 kissing-loop reporter [2]: 256 nM

Sequence: CGCAGUGAUGUUGCUAUUAUUCUUGAUUAACGAGGACCGGUACGGCCGCCACUCGAUUUCUAUCUUAUUUUGUGUUAUGUUGAUU [JR_ExcTryptoA_Sub008]
- apparent KD of K4 kissing-loop reporter (input ligand: FMN 200 uM): 306 nM
- apparent KD of K4 kissing-loop reporter (input ligand: arginine 13.2 mM): 359 nM
- apparent KD of K4 kissing-loop reporter (input ligand: none): 333 nM
- apparent KD of K4 kissing-loop reporter [1]: 417 nM
- apparent KD of K4 kissing-loop reporter [2]: 225 nM

Sequence: CGCGCUGGUUGAGAGGUUGGCGCGAAUGAUACCAGUAUAUAAGAAUACCCUUGGCAGCAUAAGAAAGAUAUAGUGAUGUUGUAUA [SSTheophA.H]
- apparent KD of K4 kissing-loop reporter (input ligand: FMN 200 uM): 592 nM
- apparent KD of K4 kissing-loop reporter (input ligand: arginine 13.2 mM): 344 nM
- apparent KD of K4 kissing-loop reporter (input ligand: none): 404 nM
- apparent KD of K4 kissing-loop reporter [1]: 448 nM
- apparent KD of K4 kissing-loop reporter [2]: 370 nM

Sequence: CGCGUGGGUUUGAGAGGGUUUGUGCGAAGUGAGGAUAUUUAGGGAGAAAGAAGGCACUAUAAAAUAUAGUGAUGUUAUAUAAGGG [SSFMNA.K]
- apparent KD of K4 kissing-loop reporter (input ligand: FMN 200 uM): 295 nM
- apparent KD of K4 kissing-loop reporter (input ligand: arginine 13.2 mM): 226 nM
- apparent KD of K4 kissing-loop reporter (input ligand: none): 275 nM
- apparent KD of K4 kissing-loop reporter [1]: 225 nM
- apparent KD of K4 kissing-loop reporter [2]: 227 nM

Sequence: CGGCUCAAUCCUAGUAUUAAGAGGGAGUUGCGAGGACCGGUACGGCCGCCACUCGAAGUAGUUUGGCCAGUGAUGUUGGUCUUAC [Mabeleon]
- apparent KD of K4 kissing-loop reporter (input ligand: FMN 200 uM): 203 nM
- apparent KD of K4 kissing-loop reporter (input ligand: arginine 13.2 mM): 194 nM
- apparent KD of K4 kissing-loop reporter (input ligand: none): 210 nM
- apparent KD of K4 kissing-loop reporter [1]: 204 nM
- apparent KD of K4 kissing-loop reporter [2]: 121 nM

Sequence: CGUGAGGACCAGAGGUGAUGUAUAGUAUCGCGAGGACCGGUACGGCCGCCACUCGUGAAGAGAAAGGAGUGAUGUUCCGUAAUGG [Kazoo C10]
- apparent KD of K4 kissing-loop reporter (input ligand: FMN 200 uM): 343 nM
- apparent KD of K4 kissing-loop reporter (input ligand: arginine 13.2 mM): 292 nM
- apparent KD of K4 kissing-loop reporter (input ligand: none): 304 nM
- apparent KD of K4 kissing-loop reporter [1]: 377 nM
- apparent KD of K4 kissing-loop reporter [2]: 110 nM

Sequence: CGUGCCCGGCCGGAUACCAGUGACCCGCUGGGAACCGCGGGCCCAGAGUGAUGUUCGGGACACCCUUGGCAGCCGCCUGGGCUGC [#2 Same State - Theophylline B Attempt #14 (HarryS)]
- apparent KD of K4 kissing-loop reporter (input ligand: FMN 200 uM): 540 nM
- apparent KD of K4 kissing-loop reporter (input ligand: arginine 13.2 mM): 395 nM
- apparent KD of K4 kissing-loop reporter (input ligand: none): 757 nM
- apparent KD of K4 kissing-loop reporter [1]: 375 nM
- apparent KD of K4 kissing-loop reporter [2]: 415 nM

Sequence: CGUUUAUAGCAGGAUACCAGUGCGGAUAAGGUGCGUUAAUAGUAGAGUGAUGUUCUAAAGUACCCUUGGCAGCUUAGAGUGAGUG [#21 K4 Theophylline B Exclusion]
- apparent KD of K4 kissing-loop reporter (input ligand: FMN 200 uM): 202 nM
- apparent KD of K4 kissing-loop reporter (input ligand: arginine 13.2 mM): 144 nM
- apparent KD of K4 kissing-loop reporter (input ligand: none): 145 nM
- apparent KD of K4 kissing-loop reporter [1]: 273 nM
- apparent KD of K4 kissing-loop reporter [2]: 108 nM

Sequence: CUAGGCAACACAGGAUAUGUCCGAGUGAUGUUCGAGCCUUUCCAUUGACGAAAUUAAUGGUGGGUGACAGAAGGGUGAGUGCUGA [Xezaqu]
- apparent KD of K4 kissing-loop reporter (input ligand: FMN 200 uM): 354 nM
- apparent KD of K4 kissing-loop reporter (input ligand: arginine 13.2 mM): 577 nM
- apparent KD of K4 kissing-loop reporter (input ligand: none): 620 nM
- apparent KD of K4 kissing-loop reporter [1]: 585 nM
- apparent KD of K4 kissing-loop reporter [2]: 432 nM

Sequence: CUAUGGGUGGACGAUACCAGCUAGUGAUGUUAGCGGGUCGAGCACGCGCAUCGCCGUGGUAGCCCUUGGCAGCGUACAGAUGUUU [theeternabot_exclusion_KL_Theo_B_5]
- apparent KD of K4 kissing-loop reporter (input ligand: FMN 200 uM): 186 nM
- apparent KD of K4 kissing-loop reporter (input ligand: arginine 13.2 mM): 131 nM
- apparent KD of K4 kissing-loop reporter (input ligand: none): 178 nM
- apparent KD of K4 kissing-loop reporter [1]: 157 nM
- apparent KD of K4 kissing-loop reporter [2]: 162 nM
